{"source": "the Human Domainome abundance scans (Beltran et al. 2025)", "parents": {"B1": {"name": "PMS1 protein homolog 1, residues 572 to 637; numbered along this chain, P54277 (parent)", "chain": "KKPMSASALFVQDHRPQFLIENPKTSLEDATLQIEELWKTLSEEEKLKYEEKATKDLERYNSQMKR"}}, "note": "± gives the uncertainty stated by the source."}
{"variants_of": "B1", "assay": "abundance fitness (aPCA) (normalised: wild type 0, dead -1); higher = more abundant; growth selection in yeast, the domain comes from the species named", "settings": "Homo sapiens"}
{"variant": "KKPMSASALFVQDHRPQFLIENPKTSLEDATLQIEELWKTLSEEEKLKYEEKATKDHERYNSQMKR", "abundance fitness": "-0.112 ± 0.15"}
{"variant": "KKPMSASALFVQDHRPQFLIENPKTSLEDATLQIEELWKTLSEEEKLKYEEKATKDRERYNSQMKR", "abundance fitness": "-0.058 ± 0.062"}
{"variant": "KKPMSASALFVQDHRPQFLIENPKTSLEDATLQIEELWKTLSEEEKLKYEEKATKDQERYNSQMKR", "abundance fitness": "-0.115 ± 0.093"}
{"variant": "KKPMSASALFVQDHRPQFLIENPKTSLEDATLQIEELWKTLSEEEKLKYEEKATKDWERYNSQMKR", "abundance fitness": "-0.103 ± 0.088"}
{"variant": "KKPMSASALFVQDHRPQFLIENPKTSLEDATLQIEELWKTLSEEEKLKYEEKATKDVERYNSQMKR", "abundance fitness": "-0.119 ± 0.051"}
{"variant": "KKPMSASALFVQDHRPQFLIENPKTSLEDATLQIEELWKTLSEEEKLKYEEKATKDYERYNSQMKR", "abundance fitness": "-0.18 ± 0.11"}
{"variant": "KKPMSASALFVQDHRPQFLIENPKTSLEDATLQIEELWKTLSEEEKLKYEEKATKDNERYNSQMKR", "abundance fitness": "-0.224 ± 0.099"}
{"variant": "KKPMSASALFVQDHRPQFLIENPKTSLEDATLQIEELWKTLSEEEKLKYEEKATKDSERYNSQMKR", "abundance fitness": "-0.135 ± 0.076"}
{"variant": "KKPMSASALFVQDHRPQFLIENPKTSLEDATLQIEELWKTLSEEEKLKYEEKATKDPERYNSQMKR", "abundance fitness": "-0.342 ± 0.091"}
{"variant": "KKPMSASALFVQDHRPQFLIENPKTSLEDATLQIEELWKTLSEEEKLKYEEKATKDMERYNSQMKR", "abundance fitness": "0.03 ± 0.086"}
{"variant": "KKPMSASALFVQDHRPQFLIENPKTSLEDATLQIEELWKTLSEEEKLKYEEKATKDTERYNSQMKR", "abundance fitness": "-0.19 ± 0.077"}
{"variant": "KKPMSASALFVQDHRPQFLIENPKTSLEDATLQIEELWKTLSEEEKLKYEEKATKDKERYNSQMKR", "abundance fitness": "-0.123 ± 0.088"}
{"variant": "KKPMSASALFVQDHRPQFLIENPKTSLEDATLQIEELWKTLSEEEKLKYEEKATKDIERYNSQMKR", "abundance fitness": "-0.136 ± 0.12"}
{"variant": "KKPMSASALFVQDHRPQFLIENPKTSLEDATLQIEELWKTLSEEEKLKYEEKATKDGERYNSQMKR", "abundance fitness": "-0.14 ± 0.071"}
{"variant": "KKPMSASALFVQDHRPQFLIENPKTSLEDATLQIEELWKTLSEEEKLKYEEKATKDLKRYNSQMKR", "abundance fitness": "-0.043 ± 0.084"}
{"variant": "KKPMSASALFVQDHRPQFLIENPKTSLEDATLQIEELWKTLSEEEKLKYEEKATKDLPRYNSQMKR", "abundance fitness": "-0.257 ± 0.073"}
{"variant": "KKPMSASALFVQDHRPQFLIENPKTSLEDATLQIEELWKTLSEEEKLKYEEKATKDLNRYNSQMKR", "abundance fitness": "-0.307 ± 0.12"}
{"variant": "KKPMSASALFVQDHRPQFLIENPKTSLEDATLQIEELWKTLSEEEKLKYEEKATKDLARYNSQMKR", "abundance fitness": "-0.113 ± 0.059"}
{"variant": "KKPMSASALFVQDHRPQFLIENPKTSLEDATLQIEELWKTLSEEEKLKYEEKATKDLWRYNSQMKR", "abundance fitness": "-0.456 ± 0.08"}
{"variant": "KKPMSASALFVQDHRPQFLIENPKTSLEDATLQIEELWKTLSEEEKLKYEEKATKDLFRYNSQMKR", "abundance fitness": "-0.321 ± 0.071"}
{"variant": "KKPMSASALFVQDHRPQFLIENPKTSLEDATLQIEELWKTLSEEEKLKYEEKATKDLGRYNSQMKR", "abundance fitness": "-0.158 ± 0.049"}
{"variant": "KKPMSASALFVQDHRPQFLIENPKTSLEDATLQIEELWKTLSEEEKLKYEEKATKDLHRYNSQMKR", "abundance fitness": "-0.09 ± 0.09"}
{"variant": "KKPMSASALFVQDHRPQFLIENPKTSLEDATLQIEELWKTLSEEEKLKYEEKATKDLYRYNSQMKR", "abundance fitness": "-0.267 ± 0.077"}
{"variant": "KKPMSASALFVQDHRPQFLIENPKTSLEDATLQIEELWKTLSEEEKLKYEEKATKDLDRYNSQMKR", "abundance fitness": "-0.047 ± 0.095"}
{"variant": "KKPMSASALFVQDHRPQFLIENPKTSLEDATLQIEELWKTLSEEEKLKYEEKATKDLCRYNSQMKR", "abundance fitness": "-0.18 ± 0.13"}
{"variant": "KKPMSASALFVQDHRPQFLIENPKTSLEDATLQIEELWKTLSEEEKLKYEEKATKDLMRYNSQMKR", "abundance fitness": "-0.169 ± 0.088"}
{"variant": "KKPMSASALFVQDHRPQFLIENPKTSLEDATLQIEELWKTLSEEEKLKYEEKATKDLIRYNSQMKR", "abundance fitness": "-0.179 ± 0.097"}
{"variant": "KKPMSASALFVQDHRPQFLIENPKTSLEDATLQIEELWKTLSEEEKLKYEEKATKDLSRYNSQMKR", "abundance fitness": "-0.099 ± 0.056"}
{"variant": "KKPMSASALFVQDHRPQFLIENPKTSLEDATLQIEELWKTLSEEEKLKYEEKATKDLTRYNSQMKR", "abundance fitness": "-0.155 ± 0.065"}
{"variant": "KKPMSASALFVQDHRPQFLIENPKTSLEDATLQIEELWKTLSEEEKLKYEEKATKDLVRYNSQMKR", "abundance fitness": "-0.108 ± 0.063"}
{"variant": "KKPMSASALFVQDHRPQFLIENPKTSLEDATLQIEELWKTLSEEEKLKYEEKATKDLRRYNSQMKR", "abundance fitness": "-0.025 ± 0.053"}
{"variant": "KKPMSASALFVQDHRPQFLIENPKTSLEDATLQIEELWKTLSEEEKLKYEEKATKDLQRYNSQMKR", "abundance fitness": "-0.005 ± 0.053"}
{"variant": "KKPMSASALFVQDHRPQFLIENPKTSLEDATLQIEELWKTLSEEEKLKYEEKATKDLEEYNSQMKR", "abundance fitness": "0.05 ± 0.095"}
{"variant": "KKPMSASALFVQDHRPQFLIENPKTSLEDATLQIEELWKTLSEEEKLKYEEKATKDLEFYNSQMKR", "abundance fitness": "-0.079 ± 0.07"}
{"variant": "KKPMSASALFVQDHRPQFLIENPKTSLEDATLQIEELWKTLSEEEKLKYEEKATKDLELYNSQMKR", "abundance fitness": "0.001 ± 0.047"}
{"variant": "KKPMSASALFVQDHRPQFLIENPKTSLEDATLQIEELWKTLSEEEKLKYEEKATKDLEIYNSQMKR", "abundance fitness": "0.088 ± 0.11"}
{"variant": "KKPMSASALFVQDHRPQFLIENPKTSLEDATLQIEELWKTLSEEEKLKYEEKATKDLEKYNSQMKR", "abundance fitness": "-0.171 ± 0.14"}
{"variant": "KKPMSASALFVQDHRPQFLIENPKTSLEDATLQIEELWKTLSEEEKLKYEEKATKDLEAYNSQMKR", "abundance fitness": "0.05 ± 0.082"}
{"variant": "KKPMSASALFVQDHRPQFLIENPKTSLEDATLQIEELWKTLSEEEKLKYEEKATKDLEHYNSQMKR", "abundance fitness": "-0.085 ± 0.16"}
{"variant": "KKPMSASALFVQDHRPQFLIENPKTSLEDATLQIEELWKTLSEEEKLKYEEKATKDLECYNSQMKR", "abundance fitness": "-0.121 ± 0.069"}
{"variant": "KKPMSASALFVQDHRPQFLIENPKTSLEDATLQIEELWKTLSEEEKLKYEEKATKDLEDYNSQMKR", "abundance fitness": "0.17 ± 0.14"}
